± gives the uncertainty stated by the source.
Assay: self-splicing fitness, log relative to wild type (ln ratio); higher = more splicing; Tetrahymena group I intron in knt gene, E. coli kanamycin selection, DiMSum; sequences stand for … in CUCUCU…GGAGGGAAAAGUUAUCAGGCAUGCACCUGGUAGCUAGUCUUUAAACCAAUAGAUUGCAUCGGUUUAAAAGGCAAGACCGUCAAAUUGCGGGAAAGGGGUCAACAGCCGUUCAGUACCAAGUCUCAGGGGAAACUUUGAGAUGGCCUUGCAAAGGGUAUGGUAAUAAGCUGACGGACAUGGUCCUAACCACGCAGCCAAGUCCUAAGUCAACAGAUCUUCUGUUGAUAUGGAUGCAGUUCACAGACUAAAUGUCGGUCGGGGAAGAUGUAUUCUUCUCAUAAGAUAUAGUCGGACCUCUCCUUAAUGGGAGCUAGCGGAUGAAGUGAUGCAACACUGGAGCCGCUGGGAACUAAUUUGUAUGCGAAAGUAUAUUGAUUAGUUUUGGAGUACUCGUGGUCG
Summary of the method: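 The eight P1ex-region nucleotides of an intron in the knt kanamycin-resistance gene on pET-22b(+) were all randomised and the library put into E. coli BL21(DE3). Six replicate transformations were grown overnight at 37°C or 30°C on LB agar with or without 25 μg/mL kanamycin, together with 100 μg/mL carbenicillin, 50 μM IPTG and 0.2% rhamnose. Colonies were pooled and amplicon-sequenced on an Illumina HiSeq 2500. Fitness from DiMSum is the error-weighted combination of wild-type-normalised replicate fold changes, kanamycin over none.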

With CCUCAGCAAUAUUACGUAGC the “self-splicing fitness (ln)” value (30 °C) was -3.9 ± 0.19 and the “self-splicing fitness (ln)” value (37 °C) was -2.73 ± 0.28.

In the case of CCUCAGCAAUAUUACGUAGG, the “self-splicing fitness (ln)” value (30 °C) is reported as -2.71 ± 0.18 and the “self-splicing fitness (ln)” value (37 °C) is reported as -2.38 ± 0.3.

In the case of CCUCAGCAAUAUUACGUGAG, the “self-splicing fitness (ln)” value (30 °C) is reported as -0.99 ± 0.057 and the “self-splicing fitness (ln)” value (37 °C) is reported as -0.881 ± 0.071.

In the case of CCUCAGCAAUAUUACGUGCA, the “self-splicing fitness (ln)” value (30 °C) is reported as -4.09 ± 0.37 and the “self-splicing fitness (ln)” value (37 °C) is reported as -2.32 ± 0.35.

With CCUCAGCAAUAUUACGUUGC the “self-splicing fitness (ln)” value (30 °C) was -3.32 ± 0.28 and the “self-splicing fitness (ln)” value (37 °C) was -2.52 ± 0.32.

In the case of CCUCAGCAAUAUUACGUUUA, the “self-splicing fitness (ln)” value (30 °C) is reported as -4.17 ± 0.2 and the “self-splicing fitness (ln)” value (37 °C) is reported as -2.57 ± 0.14.

For CCUGAGCAAUAUUACGACCG, the “self-splicing fitness (ln)” value (30 °C) was -3.73 ± 0.39 and the “self-splicing fitness (ln)” value (37 °C) was -2.5 ± 0.37.

In the case of CCUGAGCAAUAUUACGAGAA, the “self-splicing fitness (ln)” value (30 °C) is reported as -3.46 ± 0.4 and the “self-splicing fitness (ln)” value (37 °C) is reported as -1.79 ± 0.29.

For CCUGAGCAAUAUUACGAGAC, the “self-splicing fitness (ln)” value (30 °C) was -2.85 ± 0.33 and the “self-splicing fitness (ln)” value (37 °C) was -0.69 ± 0.33.

With CCUGAGCAAUAUUACGAUUU the “self-splicing fitness (ln)” value (30 °C) was -3.27 ± 0.19 and the “self-splicing fitness (ln)” value (37 °C) was -2.3 ± 0.16.

With CCUGAGCAAUAUUACGCACA the “self-splicing fitness (ln)” value (30 °C) was -1.53 ± 0.17 and the “self-splicing fitness (ln)” value (37 °C) was -1.6 ± 0.35.

With CCUGAGCAAUAUUACGCGAU the “self-splicing fitness (ln)” value (30 °C) was -3.71 ± 0.18 and the “self-splicing fitness (ln)” value (37 °C) was -2.25 ± 0.14.

With CCUGAGCAAUAUUACGGCCC the “self-splicing fitness (ln)” value (30 °C) was -2.54 ± 0.32.

For CCUGAGCAAUAUUACGGUAA, the “self-splicing fitness (ln)” value (30 °C) was -3.76 ± 0.37 and the “self-splicing fitness (ln)” value (37 °C) was -3.55 ± 0.25.

With CCUGAGCAAUAUUACGUAAC the “self-splicing fitness (ln)” value (37 °C) was -2.3 ± 0.35.

For CCUGAGCAAUAUUACGUACC, the “self-splicing fitness (ln)” value (30 °C) was -0.796 ± 0.25 and the “self-splicing fitness (ln)” value (37 °C) was -2.27 ± 0.37.

In the case of CCUGAGCAAUAUUACGUCCU, the “self-splicing fitness (ln)” value (30 °C) is reported as -4.5 ± 0.39.

For CCUGAGCAAUAUUACGUGCU, the “self-splicing fitness (ln)” value (30 °C) was -3.25 ± 0.19 and the “self-splicing fitness (ln)” value (37 °C) was -2.24 ± 0.2.

For CCUGAGCAAUAUUACGUUAC, the “self-splicing fitness (ln)” value (30 °C) was -3.52 ± 0.26 and the “self-splicing fitness (ln)” value (37 °C) was -3.09 ± 0.36.

In the case of CCUGAGCAAUAUUACGUUGC, the “self-splicing fitness (ln)” value (30 °C) is reported as -2.07 ± 0.31 and the “self-splicing fitness (ln)” value (37 °C) is reported as -2.27 ± 0.43.

In the case of CCUGAGCAAUAUUACGUUGG, the “self-splicing fitness (ln)” value (30 °C) is reported as -4.56 ± 0.29 and the “self-splicing fitness (ln)” value (37 °C) is reported as -2.16 ± 0.16.

With CCUUAGCAAUAUUACGAAGA the “self-splicing fitness (ln)” value (30 °C) was -2.58 ± 0.27 and the “self-splicing fitness (ln)” value (37 °C) was -3.3 ± 0.26.

With CCUUAGCAAUAUUACGAAGG the “self-splicing fitness (ln)” value (30 °C) was -3.53 ± 0.32.

With CCUUAGCAAUAUUACGAGCA the “self-splicing fitness (ln)” value (30 °C) was -2.64 ± 0.22 and the “self-splicing fitness (ln)” value (37 °C) was -3.17 ± 0.33.

In the case of CCUUAGCAAUAUUACGAGCG, the “self-splicing fitness (ln)” value (30 °C) is reported as -1.02 ± 0.077 and the “self-splicing fitness (ln)” value (37 °C) is reported as -0.792 ± 0.095.

With CCUUAGCAAUAUUACGAUCC the “self-splicing fitness (ln)” value (30 °C) was -2.32 ± 0.4 and the “self-splicing fitness (ln)” value (37 °C) was -2.74 ± 0.49.

For CCUUAGCAAUAUUACGAUCG, the “self-splicing fitness (ln)” value (30 °C) was -0.392 ± 0.07 and the “self-splicing fitness (ln)” value (37 °C) was -0.134 ± 0.1.

In the case of CCUUAGCAAUAUUACGCAUA, the “self-splicing fitness (ln)” value (30 °C) is reported as -3.22 ± 0.46 and the “self-splicing fitness (ln)” value (37 °C) is reported as -2.24 ± 0.37.

For CCUUAGCAAUAUUACGCCCA, the “self-splicing fitness (ln)” value (30 °C) was -1.96 ± 0.34.

For CCUUAGCAAUAUUACGCGGU, the “self-splicing fitness (ln)” value (30 °C) was -3.78 ± 0.36.

With CCUUAGCAAUAUUACGCUAG the “self-splicing fitness (ln)” value (30 °C) was -3.32 ± 0.29 and the “self-splicing fitness (ln)” value (37 °C) was -2.04 ± 0.38.

With CCUUAGCAAUAUUACGCUGG the “self-splicing fitness (ln)” value (30 °C) was -1.57 ± 0.18 and the “self-splicing fitness (ln)” value (37 °C) was -2.43 ± 0.3.

With CCUUAGCAAUAUUACGGAGC the “self-splicing fitness (ln)” value (30 °C) was -3.54 ± 0.34 and the “self-splicing fitness (ln)” value (37 °C) was -2.4 ± 0.25.

With CCUUAGCAAUAUUACGGCGG the “self-splicing fitness (ln)” value (30 °C) was -2.92 ± 0.17 and the “self-splicing fitness (ln)” value (37 °C) was -2.05 ± 0.21.

With CCUUAGCAAUAUUACGGCUC the “self-splicing fitness (ln)” value (30 °C) was -3.72 ± 0.21 and the “self-splicing fitness (ln)” value (37 °C) was -3.45 ± 0.39.

In the case of CCUUAGCAAUAUUACGGUAG, the “self-splicing fitness (ln)” value (30 °C) is reported as -4.09 ± 0.28 and the “self-splicing fitness (ln)” value (37 °C) is reported as -2.1 ± 0.23.

In the case of CCUUAGCAAUAUUACGGUGC, the “self-splicing fitness (ln)” value (30 °C) is reported as -3.75 ± 0.19 and the “self-splicing fitness (ln)” value (37 °C) is reported as -3.01 ± 0.25.

For CCUUAGCAAUAUUACGGUUG, the “self-splicing fitness (ln)” value (30 °C) was -2.38 ± 0.1 and the “self-splicing fitness (ln)” value (37 °C) was -1.48 ± 0.098.

With CCUUAGCAAUAUUACGUCCC the “self-splicing fitness (ln)” value (30 °C) was -1.81 ± 0.5.

With CCUUAGCAAUAUUACGUCUA the “self-splicing fitness (ln)” value (37 °C) was -2.65 ± 0.23.

For CCUUAGCAAUAUUACGUCUU, the “self-splicing fitness (ln)” value (30 °C) was -3.66 ± 0.16 and the “self-splicing fitness (ln)” value (37 °C) was -2.61 ± 0.17.

For CCUUAGCAAUAUUACGUGAA, the “self-splicing fitness (ln)” value (30 °C) was -4.2 ± 0.24 and the “self-splicing fitness (ln)” value (37 °C) was -3.37 ± 0.28.

For CCUUAGCAAUAUUACGUUAA, the “self-splicing fitness (ln)” value (30 °C) was -3.13 ± 0.27 and the “self-splicing fitness (ln)” value (37 °C) was -2.71 ± 0.31.

In the case of CCUUAGCAAUAUUACGUUCG, the “self-splicing fitness (ln)” value (30 °C) is reported as -3.37 ± 0.29 and the “self-splicing fitness (ln)” value (37 °C) is reported as -0.857 ± 0.18.

In the case of CCUUAGCAAUAUUACGUUCU, the “self-splicing fitness (ln)” value (30 °C) is reported as -4.18 ± 0.46 and the “self-splicing fitness (ln)” value (37 °C) is reported as -1.5 ± 0.34.
